Reference: patent US20140193378A1 (UNIVERSITY OF MIAMI, published 2014)
One block for each binder: values may come before it. Non-standard residues stand in square brackets, D forms with d. No end group written: not given here. *: point of attachment. Phe(F5) = N[C@@H](Cc1c(F)c(F)c(F)c(F)c1F)C(=O)O; Desaminotyrosyl = O=C(CCc1ccc(O)cc1)*; NMeY = CN[C@@H](Cc1ccc(O)cc1)C(=O)O; Agmatine = N=C(N)NCCCCN*; NMeA = CN[C@@H](C)C(=O)O; Nle = CCCC[C@H](N)C(=O)O; Orn = NCCC[C@H](N)C(=O)O; Abu = CC[C@H](N)C(=O)O; Ava = NCCCCC(=O)O; GABA = NCCCC(=O)O

Molecular target: T1, human GHRH receptor (human pituitary membrane homogenates) (human, UniProt Q02643 23-423)
T1 construct: whole, on cells; Native receptor in human pituitary membrane homogenates, not on intact cells; also called hGHRH receptor
T1 sequence (looked up): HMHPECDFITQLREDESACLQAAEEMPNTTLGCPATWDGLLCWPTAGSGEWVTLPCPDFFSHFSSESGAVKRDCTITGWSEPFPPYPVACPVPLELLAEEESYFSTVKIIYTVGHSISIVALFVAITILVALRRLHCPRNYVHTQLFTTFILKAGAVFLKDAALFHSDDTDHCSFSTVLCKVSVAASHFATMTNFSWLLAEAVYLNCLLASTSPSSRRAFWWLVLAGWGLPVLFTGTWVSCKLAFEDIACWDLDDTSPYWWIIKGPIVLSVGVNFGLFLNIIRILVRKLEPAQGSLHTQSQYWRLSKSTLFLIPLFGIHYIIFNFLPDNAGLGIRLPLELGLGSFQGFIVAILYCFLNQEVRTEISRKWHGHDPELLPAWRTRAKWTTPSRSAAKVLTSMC
Assay: radioligand competition vs 125I-JV-1-42 (0.2 nM), human pituitary membranes
Excerpt: Normal human pituitaries were purchased from the National Hormone and Peptide Program (A. F. Parlow, Los Angeles, County Harbor-UCLA Medical Center, Torrance, Calif.).

Relative affinity (Binding potency) vs JI-38: 6.12 fold
B1: P-22326 [N-Me-Tyr^1, D-Ala^2, Gln^8, Orn^12, Abu^15, Orn^21, Nle^27, Asp^28, Apa^30]hGHRH(1-30)NH2 (peptide)
peptide: [NMeY][dA]DAIFTQSYR[Orn]VL[Abu]QLSAR[Orn]LLQDI[Nle]DR[Ava]-NH2
modifications: N-terminus assumed
SMILES: CCCC[C@H](NC(=O)[C@@H](NC(=O)[C@H](CC(=O)O)NC(=O)[C@H](CCC(N)=O)NC(=O)[C@H](CC(C)C)NC(=O)[C@H](CC(C)C)NC(=O)[C@H](CCCN)NC(=O)[C@H](CCCNC(=N)N)NC(=O)[C@H](C)NC(=O)[C@H](CO)NC(=O)[C@H](CC(C)C)NC(=O)[C@H](CCC(N)=O)NC(=O)[C@H](CC)NC(=O)[C@H](CC(C)C)NC(=O)[C@@H](NC(=O)[C@H](CCCN)NC(=O)[C@H](CCCNC(=N)N)NC(=O)[C@H](Cc1ccc(O)cc1)NC(=O)[C@H](CO)NC(=O)[C@H](CCC(N)=O)NC(=O)[C@@H](NC(=O)[C@H](Cc1ccccc1)NC(=O)[C@@H](NC(=O)[C@H](C)NC(=O)[C@H](CC(=O)O)NC(=O)[C@@H](C)NC(=O)[C@H](Cc1ccc(O)cc1)NC)[C@@H](C)CC)[C@@H](C)O)C(C)C)[C@@H](C)CC)C(=O)N[C@@H](CC(=O)O)C(=O)N[C@@H](CCCNC(=N)N)C(=O)NCCCCC(N)=O
notes: also called Peptide 22326

Relative affinity (Binding potency) vs JI-38: 2.79 fold
Binder: [NMeY][dA]DAI[Phe(F5)]TNSYR[Orn]VL[Abu]QLSAR[Orn]LLQDI[Nle]SR[GABA]-NHMe (also called Peptide 27414) [P-27414 [N-Me-Tyr^1, D-Ala^2, Fpa5^6, Orn^12, Abu^15, Orn^21, Nle^27, Gab^30]hGHRH(1-30)NH-CH3]

Relative affinity (Binding potency) vs JI-38: 4.07 fold
B2: P-25501 [N-Me-Tyr^1, D-Ala^2, Orn^12, Abu^15, Orn^21, Nle^27, Gab^30]hGHRH(1-30)NH2 (peptide)
peptide: [NMeY][dA]DAIFTNSYR[Orn]VL[Abu]QLSAR[Orn]LLQDI[Nle]SR[GABA]-NH2
modifications: N-terminus assumed
SMILES: CCCC[C@H](NC(=O)[C@@H](NC(=O)[C@H](CC(=O)O)NC(=O)[C@H](CCC(N)=O)NC(=O)[C@H](CC(C)C)NC(=O)[C@H](CC(C)C)NC(=O)[C@H](CCCN)NC(=O)[C@H](CCCNC(=N)N)NC(=O)[C@H](C)NC(=O)[C@H](CO)NC(=O)[C@H](CC(C)C)NC(=O)[C@H](CCC(N)=O)NC(=O)[C@H](CC)NC(=O)[C@H](CC(C)C)NC(=O)[C@@H](NC(=O)[C@H](CCCN)NC(=O)[C@H](CCCNC(=N)N)NC(=O)[C@H](Cc1ccc(O)cc1)NC(=O)[C@H](CO)NC(=O)[C@H](CC(N)=O)NC(=O)[C@@H](NC(=O)[C@H](Cc1ccccc1)NC(=O)[C@@H](NC(=O)[C@H](C)NC(=O)[C@H](CC(=O)O)NC(=O)[C@@H](C)NC(=O)[C@H](Cc1ccc(O)cc1)NC)[C@@H](C)CC)[C@@H](C)O)C(C)C)[C@@H](C)CC)C(=O)N[C@@H](CO)C(=O)N[C@@H](CCCNC(=N)N)C(=O)NCCCC(N)=O
notes: also called Peptide 25501

Relative affinity (Binding potency) vs JI-38: 7.91 fold
B3: P-27408 [Dat^1, D-Ala^2, Gln^8, Orn^12, Abu^15, Orn^21, Nle^27, Asp^28]hGHRH(1-29)NH-CH3 (peptide)
peptide: [Desaminotyrosyl][dA]DAIFTQSYR[Orn]VL[Abu]QLSAR[Orn]LLQDI[Nle]DR-NHMe
SMILES: CCCC[C@H](NC(=O)[C@@H](NC(=O)[C@H](CC(=O)O)NC(=O)[C@H](CCC(N)=O)NC(=O)[C@H](CC(C)C)NC(=O)[C@H](CC(C)C)NC(=O)[C@H](CCCN)NC(=O)[C@H](CCCNC(=N)N)NC(=O)[C@H](C)NC(=O)[C@H](CO)NC(=O)[C@H](CC(C)C)NC(=O)[C@H](CCC(N)=O)NC(=O)[C@H](CC)NC(=O)[C@H](CC(C)C)NC(=O)[C@@H](NC(=O)[C@H](CCCN)NC(=O)[C@H](CCCNC(=N)N)NC(=O)[C@H](Cc1ccc(O)cc1)NC(=O)[C@H](CO)NC(=O)[C@H](CCC(N)=O)NC(=O)[C@@H](NC(=O)[C@H](Cc1ccccc1)NC(=O)[C@@H](NC(=O)[C@H](C)NC(=O)[C@H](CC(=O)O)NC(=O)[C@@H](C)NC(=O)CCc1ccc(O)cc1)[C@@H](C)CC)[C@@H](C)O)C(C)C)[C@@H](C)CC)C(=O)N[C@@H](CC(=O)O)C(=O)N[C@@H](CCCNC(=N)N)C(=O)NC
notes: also called Peptide 27408

Relative affinity (Binding potency) vs JI-38: 1.59 fold
B4: P-27401 [Dat^1, D-Ala^2, Gln^8, Orn^12, Abu^15, Orn^21, Nle^27, Asp^28, D-Arg^29]hGHRH(1-29)NH-CH3 (peptide)
peptide: [Desaminotyrosyl][dA]DAIFTQSYR[Orn]VL[Abu]QLSAR[Orn]LLQDI[Nle]D[dR]-NHMe
SMILES: CCCC[C@H](NC(=O)[C@@H](NC(=O)[C@H](CC(=O)O)NC(=O)[C@H](CCC(N)=O)NC(=O)[C@H](CC(C)C)NC(=O)[C@H](CC(C)C)NC(=O)[C@H](CCCN)NC(=O)[C@H](CCCNC(=N)N)NC(=O)[C@H](C)NC(=O)[C@H](CO)NC(=O)[C@H](CC(C)C)NC(=O)[C@H](CCC(N)=O)NC(=O)[C@H](CC)NC(=O)[C@H](CC(C)C)NC(=O)[C@@H](NC(=O)[C@H](CCCN)NC(=O)[C@H](CCCNC(=N)N)NC(=O)[C@H](Cc1ccc(O)cc1)NC(=O)[C@H](CO)NC(=O)[C@H](CCC(N)=O)NC(=O)[C@@H](NC(=O)[C@H](Cc1ccccc1)NC(=O)[C@@H](NC(=O)[C@H](C)NC(=O)[C@H](CC(=O)O)NC(=O)[C@@H](C)NC(=O)CCc1ccc(O)cc1)[C@@H](C)CC)[C@@H](C)O)C(C)C)[C@@H](C)CC)C(=O)N[C@@H](CC(=O)O)C(=O)N[C@H](CCCNC(=N)N)C(=O)NC

Relative affinity (Binding potency) vs JI-38: 8.37 fold
Binder: [NMeY][dA]DAIFTQSYR[Orn]VL[Abu]QLSAR[Orn]LLQDI[Nle]DR-NHEt (also called Peptide 28420) [P-28420 [N-Me-Tyr^1, D-Ala^2, Gln^8, Orn^12, Abu^15, Orn^21, Nle^27, Asp^28]hGHRH(1-29)NH-CH2-CH3]

Relative affinity (Binding potency) vs JI-38: 27.2 fold
Binder: [NMeY][dA]DAIFTQSYR[Orn]VL[Abu]QLSAR[Orn]LLQDI[Nle]DR-NHMe [P-27403 [N-Me-Tyr^1, D-Ala^2, Gln^8, Orn^12, Abu^15, Orn^21, Nle^27, Asp^28]hGHRH(1-29)NH-CH3]

Relative affinity (Binding potency) vs JI-38: 5.06 fold
B5: P-20357 [Dat^1, D-Ala^2, N-Me-Ala^8, Orn^12, Abu^15, Orn^21, Nle^27, Asp^28, Agm^29]hGHRH(1-29)NH2 (peptide)
peptide: [Desaminotyrosyl][dA]DAIFT[NMeA]SYR[Orn]VL[Abu]QLSAR[Orn]LLQDI[Nle]D[Agmatine]
SMILES: CCCC[C@H](NC(=O)[C@@H](NC(=O)[C@H](CC(=O)O)NC(=O)[C@H](CCC(N)=O)NC(=O)[C@H](CC(C)C)NC(=O)[C@H](CC(C)C)NC(=O)[C@H](CCCN)NC(=O)[C@H](CCCNC(=N)N)NC(=O)[C@H](C)NC(=O)[C@H](CO)NC(=O)[C@H](CC(C)C)NC(=O)[C@H](CCC(N)=O)NC(=O)[C@H](CC)NC(=O)[C@H](CC(C)C)NC(=O)[C@@H](NC(=O)[C@H](CCCN)NC(=O)[C@H](CCCNC(=N)N)NC(=O)[C@H](Cc1ccc(O)cc1)NC(=O)[C@H](CO)NC(=O)[C@H](C)N(C)C(=O)[C@@H](NC(=O)[C@H](Cc1ccccc1)NC(=O)[C@@H](NC(=O)[C@H](C)NC(=O)[C@H](CC(=O)O)NC(=O)[C@@H](C)NC(=O)CCc1ccc(O)cc1)[C@@H](C)CC)[C@@H](C)O)C(C)C)[C@@H](C)CC)C(=O)N[C@@H](CC(=O)O)C(=O)NCCCCNC(=N)N
notes: also called Peptide 20357

Relative affinity (Binding potency) vs JI-38: 1.43 fold
Binder: [NMeY][dA]DAI[Phe(F5)]TNSYR[Orn]VL[Abu]QLSAR[Orn]LLQDI[Nle]D[Agmatine] (also called Peptide 20359) [P-20359 [N-Me-Tyr^1, D-Ala^2, Fpa5^6, Orn^12, Abu^15, Orn^21, Nle^27, Asp^28, Agm^29]hGHRH(1-29)NH2]

Relative affinity (Binding potency) vs JI-38: 4.1 fold
Binder: [NMeY][dA]DAIFTNSYR[Orn]VL[Abu]QLSAR[Orn]LLQDI[Nle]DR-NHMe (also called Peptide 27409; MR-409) [P-27409 [N-Me-Tyr^1, D-Ala^2, Orn^12, Abu^15, Orn^21, Nle^27, Asp^28]hGHRH(1-29)NH-CH3]

Relative affinity (Binding potency) vs JI-38: 1.3 fold
B6: P-27400 [Dat^1, D-Ala^2, Orn^12, Abu^15, Orn^21, Nle^27, Asp^28]hGHRH(1-29)NH-CH3 (peptide)
peptide: [Desaminotyrosyl][dA]DAIFTNSYR[Orn]VL[Abu]QLSAR[Orn]LLQDI[Nle]DR-NHMe
SMILES: CCCC[C@H](NC(=O)[C@@H](NC(=O)[C@H](CC(=O)O)NC(=O)[C@H](CCC(N)=O)NC(=O)[C@H](CC(C)C)NC(=O)[C@H](CC(C)C)NC(=O)[C@H](CCCN)NC(=O)[C@H](CCCNC(=N)N)NC(=O)[C@H](C)NC(=O)[C@H](CO)NC(=O)[C@H](CC(C)C)NC(=O)[C@H](CCC(N)=O)NC(=O)[C@H](CC)NC(=O)[C@H](CC(C)C)NC(=O)[C@@H](NC(=O)[C@H](CCCN)NC(=O)[C@H](CCCNC(=N)N)NC(=O)[C@H](Cc1ccc(O)cc1)NC(=O)[C@H](CO)NC(=O)[C@H](CC(N)=O)NC(=O)[C@@H](NC(=O)[C@H](Cc1ccccc1)NC(=O)[C@@H](NC(=O)[C@H](C)NC(=O)[C@H](CC(=O)O)NC(=O)[C@@H](C)NC(=O)CCc1ccc(O)cc1)[C@@H](C)CC)[C@@H](C)O)C(C)C)[C@@H](C)CC)C(=O)N[C@@H](CC(=O)O)C(=O)N[C@@H](CCCNC(=N)N)C(=O)NC

Relative affinity (Binding potency) vs JI-38: 2.96 fold
Binder: [NMeY][dA]DAIFTNSYR[Orn]VL[Abu]QLSAR[Orn]LLQDI[Nle]DR-NHEt (also called Peptide 28421) [P-28421 [N-Me-Tyr^1, D-Ala^2, Orn^12, Abu^15, Orn^21, Nle^27, Asp^28]hGHRH(1-29)NH-CH2-CH3]

Relative affinity (Binding potency) vs JI-38: 5 fold
Binder: [NMeY][dA]DAI[Phe(F5)]TNSYR[Orn]VL[Abu]QLSAR[Orn]LLQDI[Nle]DR-NHMe [P-27404 [N-Me-Tyr^1, D-Ala^2, Fpa5^6, Orn^12, Abu^15, Orn^21, Nle^27, Asp^28]hGHRH(1-29)NH-CH3]

Relative affinity (Binding potency) vs JI-38: 2.56 fold
Binder: [NMeY][dA]DAIFTNSYR[Orn]VL[Abu]QLSAR[Orn]LLQDI[Nle]D[Agmatine] (also called Peptide 20367) [P-20367 [N-Me-Tyr^1, D-Ala^2, Orn^12, Abu^15, Orn^21, Nle^27, Asp^28, Agm^29]hGHRH(1-29)NH2]

Relative affinity (Binding potency) vs JI-38: 5.24 fold
Binder: [NMeY][dA]DAIFTTSYR[Orn]VL[Abu]QLSAR[Orn]LLQDI[Nle]DR-NHMe (also called Peptide 27410) [P-27410 [N-Me-Tyr^1, D-Ala^2, Thr^8, Orn^12, Abu^15, Orn^21, Nle^27, Asp^28]hGHRH(1-29)NH-CH3]
